Results: patent US20230056099 (published 2023)

B1: D3 (ssDNA)
DNA: ATCTCGACTAGTCATAGGGGGCGCGAACATACGCGGTTGGTGTGGTTGGCTGACAA
modifications: circular (5' and 3' ends joined)
B2: D2 (ssDNA)
DNA: ATCTCGACTAGTCATAGGGGGCGCGAACATACGCGGTTGGTGTGGTTGGCTGACAATACTCGT
modifications: circular (5' and 3' ends joined)
B3: D1 (ssDNA)
DNA: ATCTCGACTAGTCATAGGGGGCGCGAACATACGCGGTTGGTGTGGTTGGCTGACAATACTCGTGTCTCGGAT
modifications: circular (5' and 3' ends joined)
B4: TBCA (ssDNA)
DNA: ATCTCGACTAGTCATAGGGGGCGCGAACATACGCGGTTGGTGTGGTTGGCTGACAATACTCGTTTTTGGTGTCTCGGAT
modifications: circular (5' and 3' ends joined)

Target: thrombin (human alpha-thrombin) (UniProt P00734;P00734 P00734:328-363,P00734:364-622)
Test: inhibition; 0.1 nM thrombin, 2 uM fibrinogen, absorbance 350 nm

| Binder | IC50 [nM] |
| --- | --- |
| GGTTGGTGTGGTTGG (ssDNA) [TBA] | 1.3 |
| B1 | 0.13 |
| B2 | 0.09 |
| B3 | 0.15 |
| B4 | 0.15 |
